Data as given in article PMC9032829.
Where “and” joins values, the source holds several entries; their conditions need not be identical. Equal values may be shown once.

Molecular target: entire receptor binding domain (RBD) of SARS-CoV-2 Spike protein (SARS-CoV-2) (UniProt P0DTC2)
Assay: SPR

Substance: soluble αvβ3 integrin (from UniProt P06756;P05106) (complex)
- Kd: 6.3 nM and 59.3 nM
